Laboratory results published in patent publication US6200577A, “Anti-herpesviral agents and assays therefor” (priority 1996, dated 2001).
“Also recorded” adds a separate entry of the source.

Experiments:
[1] = Solubility of synthetic peptides in buffer; type: physicochemical; details: peptides dissolved in 20 mM Tris-HCl, pH 8.0, 250 mM NaCl; unpurified preparations
Description: Synthesis and Purification of Oligopeptides. Peptides were synthesised by continuous flow Fmoc chemistry (Atherton and Sheppard, 1989; McLean et al., 1991) and, where stated in the text, were purified by preparative reverse-phase HPLC (Owsianka et al., 1993). The Mr values of peptides were determined by fast atom bombardment mass spectrometry (M-Scan) and corresponded to the predicted values. Peptides were dissolved in 20 mM Tris-HCl, pH 8.0, 250 mM NaCl and centrifuged at 11,500 g for 1 minute prior to use. […] Precipitates were removed by centrifugation before use.

VP16 = target: T1, VP16 (Human herpesvirus 1, UniProt P06492); assay: ELISA of direct binding of VP16 to plate-coated peptides; design: species or system HSV-1; details: wells coated with peptide up to 500 μg/ml; VP16 1.6 μg/ml; FIG. 10
T1 construct: Plasmid pETVP16 was used to express full-length VP16 under the control of the T7 RNA polymerase promoter; made in house; host or cells: E. coli BL21(DE3)
T1 sequence (P06492 whole entry): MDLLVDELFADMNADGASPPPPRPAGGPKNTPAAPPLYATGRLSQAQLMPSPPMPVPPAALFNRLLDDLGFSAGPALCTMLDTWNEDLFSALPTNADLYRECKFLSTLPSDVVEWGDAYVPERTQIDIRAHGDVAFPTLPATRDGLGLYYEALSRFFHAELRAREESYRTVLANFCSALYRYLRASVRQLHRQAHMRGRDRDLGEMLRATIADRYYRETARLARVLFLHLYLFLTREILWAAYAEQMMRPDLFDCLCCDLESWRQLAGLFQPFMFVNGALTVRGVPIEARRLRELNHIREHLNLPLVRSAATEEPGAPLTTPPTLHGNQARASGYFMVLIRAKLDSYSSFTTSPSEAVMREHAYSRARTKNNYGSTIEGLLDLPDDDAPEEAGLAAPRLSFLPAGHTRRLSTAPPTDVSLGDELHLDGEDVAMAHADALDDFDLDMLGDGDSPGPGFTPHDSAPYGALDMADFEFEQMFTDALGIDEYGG
Description: FIG. 10 Binding of VP16 to peptides. Microtitre plates were coated with 5-fold dilutions of peptides ranging from 500 μg/ml to 1 μg/ml and blocked with PBS/10% NCS. VP16 was then added to a final concentration of 1.6 μg/ml and detected with LP1. The legend for the peptides added is shown to the right of the graph.
(§1) Dilutions of proteins in PBS were coated overnight onto flat bottomed micro-titre plates (Dynatech) at 37° C. and then blocked with either 2% BSA or 10% new-born calf serum (NCS) in PBS for 1 hour at 37° C. Specific binding of a second protein to the plate-bound protein was performed for 1.5-2 hours at ambient temperature. a Excess secondary protein was removed by washing four times with PBS, 0.3% Tween 20. Bound protein was detected by incubation for 1.5-2 hours with LP1 antibody in PBS, 1% gelatin or PBS, 2% NCS. The bound antibody was detected by incubation for 1 hour at ambient temperature with anti-mouse antibody conjugated to HRP (1:500) and visualised with Smg/ml enzyme substrate 2,2'-azino-bis(3-ethylbenzthiazoline-6-sulphonic acid) (ABTS; Sigma) in citrate-phosphate buffer containing 6 μl hydrogen peroxide in a total volume of 20 ml. Optical densities were measured on a Titertek Multiscan PLUS instrument.
To examine whether VP16 could bind directly to the peptides, wells were coated with each peptide (A-J) at a range of concentrations from […] to 500 μg/ml and the plate was then blocked with […]. […] Nonetheless, the data for peptides D and E implicate direct binding of these peptides to VP16 as the mechanism for inhibiting its interaction with VP22. Peptide H also was active in experiments which prevented gB binding to VP22trunc [Section 4 (iii)] and thus also forms an aspect of the invention.

[2] = target: T2, VP16/VP22trunc interaction (Human herpesvirus 1, UniProt P06492); assay: ELISA of peptide inhibition of VP16 binding to VP22trunc; design: species or system HSV-1; details: D and E pure preparations, effect at 100 and 500 μg/ml; VP16 1.6 μg/ml; 160 ng VP22trunc; FIG. 9
T2 construct: Plasmid pETVP16 was used to express full-length VP16 under the control of the T7 RNA polymerase promoter; made in house; host or cells: E. coli BL21(DE3)
T2 sequence (P06492 whole entry): as above
Description: FIG. 9 Inhibitory effect of peptides D and E on the VP22trunc-VP16 interaction in ELISAs. Microtitre plates were coated with 160 ng of VP22trunc and blocked with PBS/10% NCS. Before addition to the wells, five-fold dilutions of the peptides, ranging from 500 μg/ml to 1 g/ml, were incubated with VP16 (1.6 μg/ml). Bound VP16 was detected with LP1 at a dilution of 1:1000. The legend for the peptides added is shown to the right of the graph. Values are shown relative to those obtained in the absence of the peptide.
as §1
To adopt a more quantitative approach, an ELISA for VP16 binding to VP22trunc was developed. Optimal conditions were determined by coating wells with various quantities of VP22trunc followed by blocking with 2% BSA. Plates were then incubated with dilutions of VP16 and the bound VP16 detected with LP1.
The studies presented above have provided strong evidence in support of peptide inhibition of the interaction between VP16 and VP22. However, quantitative analysis of the ability of peptides to block any interaction is difficult to perform by the above methods. Therefore, using the ELISA system described in Results Section 2(iii) with the exception that PBS/10% NCS was utilised as a blocking agent, the inhibitory effects of peptides D and E were examined. This modification arose due to nonspecific binding of the peptides to wells when BSA was used for blocking (data not shown).

[3] = target: T2, VP16/VP22trunc interaction; assay: Far Western analysis of peptides blocking VP16 binding to immobilised VP22trunc; design: species or system HSV-1
Description: FIG. 7 Far Western analysis of the ability of peptides to block the interaction between VP16 and immobilised VP22trunc. Purified VP22trunc was added to partially purified extract of VP16 and the sample run on a 12% polyacrylamide gel. Proteins were then transferred to nitrocellulose membrane and the blot was cut into strips, with each strip containing approximately 1 g of VP22trunc. In (A), strips were pre-incubated with 1 mg of each of the following peptides: lane 2, no peptide, lane 3, peptide C; lane 4, peptide D; lane 5, peptide E; lane 6, peptide F; lane 7, peptides D and E; lane 8, peptides C and F. In (B) strips were pre-incubated with 1 mg of each of the following peptides: lane 2, no peptide, lane 3, peptide C; lane 4, purified peptide D; lane 5, purified peptide E; lane 6, peptide F. 24 g of pure VP16 was then added to strips 2 to 8 in (A) and strips 2 to 6 in (B), followed by incubation with LP1 antibody (1:1000 dilution). As a control, portions of the blot were incubated with LP1 or the 9220 antibody at a dilution of 1:1000 (lane 1 for LP1 in A and B; lane 9 in A and lane 7 in B for 9220). The apparent molecular weights of VP16 (65 KDa) and the dimer (32 KDa) and monomer (16 KDa) forms of VP22trunc are shown.
Following electrophoresis, proteins were electrotransferred to either Hybond or ProBlott (Applied Biosystems) membrane and the membrane was incubated in renaturation buffer (50 mM Tris-HCl, pH 8.0, 150 mM NaCl, 10% glycerol, 1 mM DTT) at 4° C. for 5-6 hours.
For membranes probed with either VP16 or VP22trunc, blocking was performed overnight as described for Western blot analysis. Probing with epitope-tagged VP22 or VP16 was performed in 20 mM Tris-HCl, pH 8.0, 250 mM NaCl for 1.5 hours at ambient temperature. Excess probe was removed by washing 4 times (10 minutes per wash) in 20 mM Tris-HCl, pH8.0, 250 mM NaCl, followed by incubation with the appropriate antibody at a dilution of 1:1000 in TTBS/1% gelatin for 1.5-2 hours. Bound antibody was detected as described for Western blot analysis.
Based on the studies with soluble VP16 and VP22trunc presented above, only a restricted number of peptides were examined by Far Western analysis to identify those that may prevent binding of VP16. Thus, VP22trunc was added to a crude extract of bacterially expressed VP16 and the proteins were electrophoresed on a polyacrylamide gel followed by transfer to a membrane. […] Before the addition of VP16 the blot strips in lanes 3 to 8 were incubated with crude preparations of peptides C, D, E, or E' as well as mixtures of either 0 and E or C and F. When the blot strips were incubated with peptides C and F either singly or in combination, VP16 bindincg to VP22trunc was not prevented (FIG. 7A, lanes 3, 6 and 8).

DVVQDVPDPERKTPRVTGG [Peptide J]
Solubility [1]: soluble
Direct binding of VP16 to plate-coated peptide (ELISA) (VP16): binding did not occur

GSHMARTAPTRSKTPAQGLA [Peptide A]
Solubility [1]: soluble
Direct binding of VP16 to plate-coated peptide (ELISA) (VP16): binding did not occur

KTPAQGLARKLHFSTAPPNP [Peptide B]
Solubility [1]: soluble
Inhibition of VP16 binding to VP22trunc in ELISA [2]: neither peptides B, C nor F had any effect
Direct binding of VP16 to plate-coated peptide (ELISA) (VP16): binding did not occur

NLLQRANELVNPDVVQDVPD [Peptide I]
Solubility [1]: soluble
Direct binding of VP16 to plate-coated peptide (ELISA) (VP16): binding did not occur

PRTDEDLNELLGITTIRVTV [Peptide G]
Solubility [1]: partly; also recorded: partially insoluble
Direct binding of VP16 to plate-coated peptide (ELISA) (VP16): binding did not occur

RMAAVQLWDMSRPRTDEDLN [Peptide F]
Solubility [1]: soluble
Blocking of VP16 binding to immobilised VP22trunc (Far Western), crude peptides ([3]; strips pre-incubated with 1 mg of crude peptide, FIG. 7A): not prevented
Blocking of VP16 binding to immobilised VP22trunc (Far Western), repeat with purified peptides D and E ([3]; strips pre-incubated with 1 mg peptide, D and E purified, FIG. 7B): had no effect
Inhibition of VP16 binding to VP22trunc in ELISA [2]: neither peptides B, C nor F had any effect
Direct binding of VP16 to plate-coated peptide (ELISA) (VP16): binding did not occur
